Target: senataxin (SETX), endogenous (human (endogenous in MRC-5)) (UniProt Q7Z333)
Experiment: proximity ligation; Duolink PLA in methanol-fixed MRC-5 cells with antibodies against the two endogenous proteins; cells mock treated (DMSO), 25 uM CPT for 10 min, or 50 uM alpha-amanitin overnight followed by CPT

UniProt Q7Z333, sequence (Q7Z333 whole entry): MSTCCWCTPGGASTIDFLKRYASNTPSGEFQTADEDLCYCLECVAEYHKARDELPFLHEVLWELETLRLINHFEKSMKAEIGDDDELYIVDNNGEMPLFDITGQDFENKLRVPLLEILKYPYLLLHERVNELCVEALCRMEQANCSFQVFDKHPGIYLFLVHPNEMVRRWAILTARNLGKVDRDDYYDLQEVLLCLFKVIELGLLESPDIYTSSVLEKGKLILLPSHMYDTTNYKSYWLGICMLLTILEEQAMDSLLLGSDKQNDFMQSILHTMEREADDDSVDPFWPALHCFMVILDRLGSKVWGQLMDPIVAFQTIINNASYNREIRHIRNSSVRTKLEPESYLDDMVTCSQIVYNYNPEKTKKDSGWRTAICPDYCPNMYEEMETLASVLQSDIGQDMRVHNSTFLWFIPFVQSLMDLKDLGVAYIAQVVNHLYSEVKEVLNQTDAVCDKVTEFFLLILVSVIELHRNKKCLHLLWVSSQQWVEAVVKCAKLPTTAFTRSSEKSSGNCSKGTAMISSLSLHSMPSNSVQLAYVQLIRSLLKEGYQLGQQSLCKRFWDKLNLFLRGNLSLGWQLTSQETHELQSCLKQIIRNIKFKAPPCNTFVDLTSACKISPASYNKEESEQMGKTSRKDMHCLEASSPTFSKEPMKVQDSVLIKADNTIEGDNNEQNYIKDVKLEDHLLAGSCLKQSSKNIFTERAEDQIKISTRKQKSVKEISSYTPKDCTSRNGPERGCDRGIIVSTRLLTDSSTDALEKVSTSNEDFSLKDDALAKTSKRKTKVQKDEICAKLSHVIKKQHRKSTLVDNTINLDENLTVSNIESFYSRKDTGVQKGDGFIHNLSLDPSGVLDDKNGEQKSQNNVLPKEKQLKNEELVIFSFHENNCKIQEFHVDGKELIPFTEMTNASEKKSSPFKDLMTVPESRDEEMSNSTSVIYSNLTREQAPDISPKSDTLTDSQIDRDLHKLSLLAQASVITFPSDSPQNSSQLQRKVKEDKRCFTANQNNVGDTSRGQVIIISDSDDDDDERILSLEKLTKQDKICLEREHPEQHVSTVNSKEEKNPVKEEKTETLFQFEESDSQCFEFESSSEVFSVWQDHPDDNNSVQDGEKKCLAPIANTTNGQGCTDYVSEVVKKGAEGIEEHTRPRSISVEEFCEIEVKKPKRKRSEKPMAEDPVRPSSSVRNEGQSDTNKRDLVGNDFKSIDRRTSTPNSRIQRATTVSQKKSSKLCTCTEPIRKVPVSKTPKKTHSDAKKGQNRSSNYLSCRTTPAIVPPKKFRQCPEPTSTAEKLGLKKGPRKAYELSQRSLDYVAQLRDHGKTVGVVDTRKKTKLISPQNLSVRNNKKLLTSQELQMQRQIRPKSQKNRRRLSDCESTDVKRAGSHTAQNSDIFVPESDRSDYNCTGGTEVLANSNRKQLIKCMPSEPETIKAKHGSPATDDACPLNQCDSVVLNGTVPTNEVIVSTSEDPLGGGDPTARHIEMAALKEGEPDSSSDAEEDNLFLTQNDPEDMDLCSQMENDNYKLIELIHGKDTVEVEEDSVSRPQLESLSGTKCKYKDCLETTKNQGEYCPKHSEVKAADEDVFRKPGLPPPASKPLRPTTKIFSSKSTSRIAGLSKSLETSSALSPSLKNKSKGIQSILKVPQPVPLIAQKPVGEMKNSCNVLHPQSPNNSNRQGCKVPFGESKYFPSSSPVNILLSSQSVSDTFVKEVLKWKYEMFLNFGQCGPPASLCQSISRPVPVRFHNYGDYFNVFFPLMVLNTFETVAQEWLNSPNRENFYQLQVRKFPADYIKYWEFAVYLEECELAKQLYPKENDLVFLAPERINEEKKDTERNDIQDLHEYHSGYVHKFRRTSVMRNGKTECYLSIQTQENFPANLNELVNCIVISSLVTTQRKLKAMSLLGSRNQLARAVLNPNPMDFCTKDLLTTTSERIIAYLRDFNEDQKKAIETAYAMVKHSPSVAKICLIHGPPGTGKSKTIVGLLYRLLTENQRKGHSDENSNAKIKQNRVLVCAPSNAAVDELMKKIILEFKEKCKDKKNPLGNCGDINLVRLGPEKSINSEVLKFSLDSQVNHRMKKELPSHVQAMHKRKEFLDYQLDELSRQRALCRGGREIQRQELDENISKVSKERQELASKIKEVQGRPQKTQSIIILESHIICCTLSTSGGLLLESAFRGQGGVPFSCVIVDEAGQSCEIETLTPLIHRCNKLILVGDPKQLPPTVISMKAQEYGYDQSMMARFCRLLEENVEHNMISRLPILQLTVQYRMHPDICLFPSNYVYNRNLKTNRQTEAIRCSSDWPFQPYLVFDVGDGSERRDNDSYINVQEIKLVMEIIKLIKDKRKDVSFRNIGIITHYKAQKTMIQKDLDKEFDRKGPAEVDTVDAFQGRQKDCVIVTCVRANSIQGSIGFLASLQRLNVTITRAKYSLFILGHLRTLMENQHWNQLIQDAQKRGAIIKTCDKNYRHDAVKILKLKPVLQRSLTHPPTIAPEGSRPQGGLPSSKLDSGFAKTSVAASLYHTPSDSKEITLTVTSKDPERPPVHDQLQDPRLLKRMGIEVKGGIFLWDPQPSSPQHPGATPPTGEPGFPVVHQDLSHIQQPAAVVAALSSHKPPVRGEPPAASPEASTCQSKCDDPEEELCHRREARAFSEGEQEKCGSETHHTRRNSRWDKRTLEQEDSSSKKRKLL

## ubiquitin specific peptidase 11 (USP11), endogenous (from UniProt P51784 1-963)
  fold increase in PLA signal after CPT (against unperturbed cells): 5 fold
